# Measured values reported in US20250361326A1 (Hoffmann-La Roche, published 2025).
# T1: VEGF (UniProt P15692-9 27-147)
# T1 construct: also called VEGF121
# T1 sequence (looked up): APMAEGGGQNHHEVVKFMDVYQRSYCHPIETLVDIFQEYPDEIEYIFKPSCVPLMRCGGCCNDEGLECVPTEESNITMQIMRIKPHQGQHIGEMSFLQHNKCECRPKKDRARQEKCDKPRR
# B1: anti-bio/anti-fluos bispecific antibody (exchange reaction: bio MHCFcRP-knob-E357K row x fluos MHCFcRP-hole-K370E column) (bispecific antibody, human IgG1, kappa)
# heavy 1: not shown
# light 1: DIQMTQSPSSLSASVGDRVTITCRASGNIHNYLSWYQQKPGKVPKLLIYSAKTLADGVPSRFSGSGSGTDFTLTISSLQPEDVATYYCQHFWSSIYTFGQGTKLEIKRTVAAPSVFIFPPSDEQLKSGTASVVCLLNNFYPREAKVQWKVDNALQSGNSQESVTEQDSKDSTYSLSSTLTLSKADYEKHKVYACEVTHQGLSSPVTKSFNRGEC
# heavy 2: not shown
# light 2: DIVMTQTPLSLSVTPGQPASISCKSSQSLVHSNGNTYLRWYLQKPGQSPKVLIYKVSNRVSGVPDRFSGSGSGTDFTLKISRVEAEDVGVYYCSQSTHVPWTFGQGTKLEIKRTVAAPSVFIFPPSDEQLKSGTASVVCLLNNFYPREAKVQWKVDNALQSGNSQESVTEQDSKDSTYSLSSTLTLSKADYEKHKVYACEVTHQGLSSPVTKSFNRGEC
# notes: Product of the 2/3-IgG exchange reaction, tested as reaction mix; human IgG1 knob-into-hole format; also called bio/fluos bsAb
# B2: anti-bio/anti-PDGF bispecific antibody (exchange reaction: bio MHCFcRP-knob-E357K row x PDGF MHCFcRP-hole-K370E column) (bispecific antibody, human IgG1, not shown: small tags and cut ends)
# heavy 1: not shown
# light 1: B1 light 1
# heavy 2: EVQLVESGGGLVQPGGSLRLSCAASGFTFSSYWMSWVRQAPEKGLEWVSTISDGGGLTYYADSVKGRFTISRDNAKNSLYLQMNSLRAEDTAVYYCAESGGYTDWLFGYWGQGTLVTVSSASTKGPSVFPLAPSSKSTSGGTAALGCLVKDYFPEPVTVSWNSGALTSGVHTFPAVLQSSGLYSLSSVVTVPSSSLGTQTYICNVNHKPSNTKVDKKVEPKSC
# light 2: not shown
# notes: Product of the 2/3-IgG exchange reaction, tested as reaction mix; human IgG1 knob-into-hole format; also called bio/PDGF bsAb
# B3: anti-dig/anti-bio bispecific antibody (exchange reaction: dig MHCFcRP-knob-E357K row x bio MHCFcRP-hole-K370E column) (bispecific antibody, human IgG1, not shown: small tags and cut ends)
# heavy 1: QVQLVESGGGLVKPGGSLRLSCAASGFTFSDYAMSWIRQAPGKGLEWVSSINIGATYIYYADSVKGRFTISRDNAKNSLYLQMNSLRAEDTAVYYCARPGSPYEYDKAYYSMAYWGQGTTVTVSSASTKGPSVFPLAPSSKSTSGGTAALGCLVKDYFPEPVTVSWNSGALTSGVHTFPAVLQSSGLYSLSSVVTVPSSSLGTQTYICNVNHKPSNTKVDKKVEPKSC
# light 1: not shown
# heavy 2: not shown
# light 2: B1 light 1
# notes: Product of the 2/3-IgG exchange reaction, tested as reaction mix; human IgG1 knob-into-hole format; also called dig/bio bsAb
# B4: anti-bio/anti-dig bispecific antibody (exchange reaction: bio MHCFcRP-knob-E357K row x dig MHCFcRP-hole-K370E column) (bispecific antibody, human IgG1, not shown: small tags and cut ends)
# heavy 1: not shown
# light 1: B1 light 1
# heavy 2: B3 heavy 1
# light 2: not shown
# notes: Product of the 2/3-IgG exchange reaction, tested as reaction mix; human IgG1 knob-into-hole format; also called bio/dig bsAb
# B5: anti-fluos/anti-bio bispecific antibody (exchange reaction: fluos MHCFcRP-knob-E357K row x bio MHCFcRP-hole-K370E column) (bispecific antibody, human IgG1, kappa)
# heavy 1: not shown
# light 1: B1 light 2
# heavy 2: not shown
# light 2: B1 light 1
# notes: Product of the 2/3-IgG exchange reaction, tested as reaction mix; human IgG1 knob-into-hole format; also called fluos/bio bsAb
# B6: anti-PDGF/anti-bio bispecific antibody (exchange reaction: PDGF MHCFcRP-knob-E357K row x bio MHCFcRP-hole-K370E column) (bispecific antibody, human IgG1, not shown: small tags and cut ends)
# heavy 1: B2 heavy 2
# light 1: not shown
# heavy 2: not shown
# light 2: B1 light 1
# notes: Product of the 2/3-IgG exchange reaction, tested as reaction mix; human IgG1 knob-into-hole format; also called PDGF/bio bsAb
# B7: anti-fluos/anti-dig bispecific antibody (exchange reaction: fluos MHCFcRP-knob-E357K row x dig MHCFcRP-hole-K370E column) (bispecific antibody, human IgG1, not shown: small tags and cut ends)
# heavy 1: not shown
# light 1: B1 light 2
# heavy 2: B3 heavy 1
# light 2: not shown
# notes: Product of the 2/3-IgG exchange reaction, tested as reaction mix; human IgG1 knob-into-hole format; also called fluos/dig bsAb
# B8: anti-dig/anti-fluos bispecific antibody (exchange reaction: dig MHCFcRP-knob-E357K row x fluos MHCFcRP-hole-K370E column) (bispecific antibody, human IgG1, not shown: small tags and cut ends)
# heavy 1: B3 heavy 1
# light 1: not shown
# heavy 2: not shown
# light 2: B1 light 2
# notes: Product of the 2/3-IgG exchange reaction, tested as reaction mix; human IgG1 knob-into-hole format; also called dig/fluos bsAb
# B9: anti-dig/anti-PDGF bispecific antibody (exchange reaction: dig MHCFcRP-knob-E357K row x PDGF MHCFcRP-hole-K370E column) (bispecific antibody, human IgG1, not shown: small tags and cut ends)
# heavy 1: B3 heavy 1
# light 1: not shown
# heavy 2: B2 heavy 2
# light 2: not shown
# notes: Product of the 2/3-IgG exchange reaction, tested as reaction mix; human IgG1 knob-into-hole format; also called dig/PDGF bsAb
# B10: anti-PDGF/anti-dig bispecific antibody (exchange reaction: PDGF MHCFcRP-knob-E357K row x dig MHCFcRP-hole-K370E column) (bispecific antibody, human IgG1, not shown: small tags and cut ends)
# heavy 1: B2 heavy 2
# light 1: not shown
# heavy 2: B3 heavy 1
# light 2: not shown
# notes: Product of the 2/3-IgG exchange reaction, tested as reaction mix; human IgG1 knob-into-hole format; also called PDGF/dig bsAb
# Target: T1, VEGF
# Experiment: bridging ELISA of exchange reaction mix, 1.3 µM input; VEGF coated, biocytinamid-Cy5 detection; highest value = 100%; binder has bio arm, no VEGF arm
row,relative signal intensity,Binder
1,9%,B1
2,10.1%,B2
3,9%,B3
4,9.3%,B4
5,10.2%,B5
6,10.5%,B6

# Target: T1, VEGF
# Experiment: bridging ELISA, VEGF coated, biocytinamid-Cy5 detection; binder has bio and PDGF arms, no VEGF arm
row,Binder,binding result
1,B2,no binding (tested: 1.3 µM input molecule concentration)
2,B6,no binding (tested: 1.3 µM input molecule concentration)

# Target: T1, VEGF
# Experiment: bridging ELISA, VEGF coated, biocytinamid-Cy5 or digoxygenin-Cy5 detection; binder has bio and dig arms, no VEGF arm
row,Binder,binding result
1,B3,no binding (tested: 1.3 µM input molecule concentration)
2,B4,no binding (tested: 1.3 µM input molecule concentration)

# Target: T1, VEGF
# Experiment: bridging ELISA of exchange reaction mix, 1.3 µM input; VEGF coated, biocytinamid-Cy5 detection; highest value = 100%; binder has neither arm
row,relative signal intensity,Binder
1,9.4%,B7
2,9.1%,B8
3,9.9%,B9
4,9.2%,B10

# Target: T1, VEGF
# Experiment: bridging ELISA, VEGF coated, digoxygenin-Cy5 detection; binder has dig and PDGF arms, no VEGF arm
row,Binder,binding result
1,B9,no binding (tested: 1.3 µM input molecule concentration)
2,B10,no binding (tested: 1.3 µM input molecule concentration)

# Target: T1, VEGF
# Experiment: bridging ELISA, VEGF coated, biocytinamid-Cy5 detection; binder has bio arm, no VEGF arm
row,Binder,binding result
1,B1,no binding (tested: 1.3 µM input molecule concentration)
2,B5,no binding (tested: 1.3 µM input molecule concentration)

# Target: T1, VEGF
# Experiment: bridging ELISA of exchange reaction mix, 1.3 µM input; VEGF coated, digoxygenin-Cy5 detection; highest value = 100%; binder has dig arm, no VEGF arm
row,relative signal intensity,Binder
1,6.2%,B3
2,6.2%,B4
3,6.3%,B7
4,6.7%,B8
5,7%,B9
6,5.9%,B10

# Target: T1, VEGF
# Experiment: bridging ELISA, VEGF coated, digoxygenin-Cy5 detection; binder has dig arm, no VEGF arm
row,Binder,binding result
1,B7,no binding (tested: 1.3 µM input molecule concentration)
2,B8,no binding (tested: 1.3 µM input molecule concentration)

# Target: T1, VEGF
# Experiment: bridging ELISA of exchange reaction mix, 1.3 µM input; VEGF coated, digoxygenin-Cy5 detection; highest value = 100%; binder has neither arm
row,relative signal intensity,Binder
1,7.2%,B1
2,6.1%,B2
3,6.5%,B5
4,6%,B6
